Reference: patent US20140301990A1

How the values were obtained:
Assay in all cases: cell_activity
[1] = tested on: TALEN 101512 (engineered); conditions: pair with 101516, K562; 5.3 with 101514, 8.9 with 101515
[2] = tested on: TALEN 101536 (engineered); conditions: pair with 101541, K562; 8.5 with 101539, 9.9 with 101540
[3] = tested on: TALEN 101539 (engineered); conditions: pair with 101536, K562; 0.0 with 101537
[4] = tested on: TALEN 101516 (engineered); conditions: pair with 101513, K562
[5] = tested on: TALEN 101515 (engineered); conditions: pair with 101512, K562
[6] = tested on: TALEN 101540 (engineered); conditions: pair with 101536, K562; 9.6 with 101537
[7] = tested on: TALEN 101537 (engineered); conditions: pair with 101541, K562; 9.6 with 101540, 0.0 with 101539
[8] = tested on: TALEN 101514 (engineered); conditions: pair with 101513, K562
[9] = tested on: TALEN 101511 (engineered); conditions: pair with 101515, K562; 3.4 with 101514, 5.3 with 101516
[10] = tested on: ZFN 22454 (TRBC) (engineered); conditions: pair with 16783, K562 day 3; 12.1 day 10
[11] = tested on: ZFN 22449 (TRBC) (engineered); conditions: pair with 16783, K562 day 3; 8.1 day 10
[12] = tested on: ZFN 22409 (TRBC) (engineered); conditions: pair with 16783, K562 day 10
[13] = tested on: ZFN 16787 (TRBC) (engineered); conditions: pair with 16783, K562 day 3; 15.6 day 10; Table 6 8.73 TRBC1, 8.68 TRBC2
[14] = tested on: TALEN 101513 (engineered); conditions: pair with 101516, K562; 5.9 with 101514, 8.3 with 101515

GTGCTGTGGCCTGGAGCAAC (double strand) [101512 site]
activity [1]: 12 % NHEJ

TTCCGCTGTCAAGTCCAGTTC (double strand) [101536 site]
activity [2]: 15 % NHEJ

CTGGGTCCACTCGTCATTCT (double strand) [101539 site]
activity [3]: 8.5 % NHEJ

GTTGAAGGCGTTTGCACATG (double strand) [101516 site]
activity [4]: 16.4 % NHEJ

GTTGAAGGCGTTTGCACATGC (double strand) [101515 site]
activity [5]: 8.9 % NHEJ

CTGGGTCCACTCGTCATTC (double strand) [101540 site]
activity [6]: 9.9 % NHEJ

CTGTCAAGTCCAGTTCTA (double strand) [101537 site]
activity [7]: 9.9 % NHEJ

TTGAAGGCGTTTGCACATGCA (double strand) [101514 site]
activity [8]: 5.9 % NHEJ

GTGCTGTGGCCTGGAGCAA (double strand) [101511 site]
activity [9]: 5.9 % NHEJ

TCTCGGAGAATGACGAGTGGACCCAGGA (double strand) [TRBC 16787 site]
activity [10]: 17.7 % NHEJ | activity [11]: 20.1 % NHEJ | activity [12]: 14.7 % NHEJ | activity [13]: 12.1 % NHEJ

CTGTGGCCTGGAGCAACAA (double strand) [101513 site]
activity [14]: 16.4 % NHEJ
